The record followed here is US11130780B2, “Inhibitors of growth factor activation enzymes” (Washington University, priority 2015, dated 2021).

In this series the test system is T1, Cc1cc(=O)oc2cc(NC(=O)[C@H](CCCNC(=N)N)NC(=O)[C@H](C)NC(=O)[C@H](CCC(N)=O)NC(=O)OC(C)(C)C)ccc12.
T1 construct: purchased R&D Systems 4776-SE-010
The series can be described thus: Km determination of fluorogenic substrate with hepsin. In kind it is biochemical, human. The method, then:
In black 384 well plates (Corning #3575), 12.5 nM HGFA was mixed with various amounts of Boc-QLR-AMC and 1 nM matriptase and 0.3 nM hepsin were mixed with various amounts of Boc-QAR-AMC. Changes in fluorescence (excitation at 380 nm and emission at 460 nn) were measured at room temperature over time in a Biotek Synergy 2 plate reader (Winnoski, Vt.). Using plots of the mean reaction velocity versus substrate concentration and the Michaelis-Menten enzyme kinetics equation within GraphPad Prism version 6.04 for Windows (GraphPad Software, San Diego, Calif., www.graphpad.com), the reaction Vmax and subsequent Km for each of the substrates were determined.

hepsin (Homo sapiens), sequence (chain, as listed by the source): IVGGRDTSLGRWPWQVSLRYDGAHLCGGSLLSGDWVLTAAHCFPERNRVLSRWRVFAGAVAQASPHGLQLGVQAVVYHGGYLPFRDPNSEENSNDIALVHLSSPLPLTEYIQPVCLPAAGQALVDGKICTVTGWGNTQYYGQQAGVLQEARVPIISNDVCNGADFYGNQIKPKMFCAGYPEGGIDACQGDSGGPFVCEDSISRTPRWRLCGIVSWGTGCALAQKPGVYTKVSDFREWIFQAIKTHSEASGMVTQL

For hepsin (Homo sapiens), the Km is 156 µM.
